From paper PMC3748058 (2013)

B1: GFP lamin A WT [human] / GST Nesprin-2 SR52,53 [human] (parent complex)
chain 1: METPSQRRATRSGAQASSTPLSPTRITRLQEKEDLQELNDRLAVYIDRVRSLETENAGLRLRITESEEVVSREVSGIKAAYEAELGDARKTLDSVAKERARLQLELSKVREEFKELKARNTKKEGDLIAAQARLKDLEALLNSKEAALSTALSEKRTLEGELHDLRGQVAKLEAALGEAKKQLQDEMLRRVDAENRLQTMKEELDFQKNIYSEELRETKRRHETRLVEIDNGKQREFESRLADALQELRAQHEDQVEQYKKELEKTYSAKLDNARQSAERNSNLVGAAHEELQQSRIRIDSLSAQLSQLQKQLAAKEAKLRDLEDSLARERDTSRRLLAEKEREMAEMRARMQQQLDEYQELLDIKLALDMEIHAYRKLLEGEEERLRLSPSPTSQRSRGRASSHSSQTQGGGSVTKKRKLESTESRSSFSQHARTSGRVAVEEVDEEGKFVRLRNKSNEDQSMGNWQIKRQNGDDPLLTYRFPPKFTLKAGQVVTIWAAGAGATHSPPTDLVWKAQNTWGCGNSLRTALINSTGEEVAMRKLVRSVTVVEDDEDEDGDDLLHHHHGSHCSSSGDPAEYNLRSRTVLCGTCGQPADKASASGSGAQVGGPISSGSSASSVTVTRSYRSVGGSGGGSFGDNLVTRSYLLGNSSPRTQSPQNCSIM
chain 2: SRFEDWLKSAERTAACPNSSEVLYTSAKEELKRFEAFQRQIHERLTQLELINKQYRRLARENRTDTASRLKQMVHEGNQRWDNLQRRVTAVLRRLRHFTNQREEFEGTRESILVWLTEMDLQLTNVEHFSESDADDKMRQLNGFQQEITLNTNKIDQLIVFGEQLIQKSEPLDAVLIEDELEELHRYCQEVFGRVSRFHRRL

Variants of: B1
Experiment: GST pull-down, western blot quantification; COS7 cell lysates; four to seven independent experiments; parent: 0; read off a plot

Row | Variant | screen value
1 | chain 1 L421P | ~-29%
2 | chain 1 G413C | ~-22%
3 | chain 1 G411D | ~11%

The remaining lines, values ahead:

Row | screen value | Variant
4 | ~55% | chain 1 V415I
5 | ~-15% | chain 1 R427G
6 | ~51% | chain 1 R401C
7 | ~-10% | chain 1 R419C
